What was measured:
BCL2 = molecular target: BCL2; parameters: method as in PMID 27805565; settings: read-out: dissociation constant (Kd); cited from earlier work
[1] = parameters: method as in PMID 30209393; settings: read-out: Kd for the phenolate form of DFHBI; cited from earlier work
[2] = with DFHBI; cited from earlier work
[3] = In vitro chromophore titration with DFHBI (fluorescence, single-binding site isotherm fit)
Experimental: Fluorescence endpoints were measured on a Synergy Neo2 hybrid multi-mode reader (BioTek) in flat bottom, black polystyrene, non-binding surface 96-well microplates (Corning 3650). In measuring chromophore-binding affinities (Fig. 1d, e), mFAP2, mFAP2a, and mFAP2b, and mFAP10 were produced by large-scale protein purification and SEC purification. Proteins were aliquoted in eight technical replicates in 200 μL final volumes to 20.0 nM final concentration in ten serial dilutions ( 10 dilution factor) of DFHBI starting from 31.6 μM DFHBI or 31.6 μM DFHBI-1T final concentrations, including an eleventh condition without chromophore. Fluorescence was excited at λex = 468 nm and fluorescence emission measured at λem = 530 nm. Background fluorescence endpoints of wells with identical chromophore concentrations but purified protein replaced with an identical volume of high-salt Tev cleavage buffer were measured, and fluorescence endpoints subtracted from those measured with protein. Background-subtracted data were averaged and the means normalized from 0 to 1 and fit to a single-binding site isotherm function using non-linear least squares fitting to obtain a fitted Kd value (Table 1), and the fit scaled to the maximum mean value (Fig. 1d, e).

[4] = Photophysical characterization: absorbance, excitation/emission spectra, extinction coefficients, quantum yields; assay type: physicochemical
Experimental: Protein preparation: mFAP2a, mFAP2b, and mFAP10 were produced by large-scale protein purification and SEC purification, and dialyzed overnight into DPBS that was adjusted to pH 7.40 using NaOH.
Chromophore preparation: DFHBI (Lucerna) and DFHBI-1T (Lucerna) were dissolved to 20.0 mM in 100% DMSO, and diluted in DPBS (pH 7.40) to measure absorbances on a Jasco V-750 spectrophotometer at peak absorbance wavelengths (417 nm for DFHBI and 422 nm for DFHBI-1T). Following background subtraction of identical buffer without chromophore, Beer’s Law was used to calculate the molar chromophore concentrations of the stock solutions using previously reported extinction coefficients.
Preparation of protein–chromophore complexes: For quantum yield measurements, 1.00 μM, 836 nM, or 919 nM chromophore solutions in DPBS (pH 7.40) at 4.00 mL final volumes were prepared for the following eight conditions: DFHBI only, DFHBI-1T only, 43.5 µM 6xHis-mFAP10 with DFHBI, 43.5 µM 6xHis-mFAP10 with DFHBI-1T, 134 μM 6xHis-mFAP2a with DFHBI, 134 μM 6xHis-mFAP2a with DFHBI-1T, 206 μM 6xHis-mFAP2b with DFHBI, and 206 μM 6xHis-mFAP2b with DFHBI-1T.
Extinction coefficients: Absorbance spectra of protein–chromophore complexes were first measured with a Thermo Scientific BioMate 3S UV–Vis Spectrophotometer (1 nm interval, 800 nm min^−1). The extinction coefficients were then calculated using Beer’s Law:12 A=ε⋅b⋅c, where A is peak absorbance, ε is extinction coefficient, b is path length (1 cm), and c is concentration (1.00 μM, 836 nM, or 919 nM).
Relative quantum yield: A Perkin-Elmer LS-B Luminescence Spectrophotometer (10 nm bandwidth, 1 nm interval, 100 nm min^−1) was used. The fluorescence emission spectra of the protein–chromophore complexes (in DPBS, pH 7.40) and reference dye Acridine Yellow G (in methanol) were first obtained, and the quantum yield was then calculated using the equation[53]:13 ϕc=ϕr⋅1−10^−Ar(λex)/1−10^−Ac(λex)⋅∫Fc(λ)⋅dλ/∫Fr(λ)⋅dλ⋅nc2/nr2, where ϕ is quantum yield, A(λex) is absorbance at the excitation wavelength λex ( λex = 440 nm), F is fluorescence emission, n is refractive index of the solution (1.3350 for DPBS at pH 7.40 and 1.3284 for methanol), and the subscripts “c” and “r” refer to the protein–chromophore complex measured and the reference dye, respectively. […]
Absolute quantum yield: An integrating sphere instrument (Hamamatsu C9920-12) (6 nm excitation bandwidth, 1 nm interval) and a high-sensitivity photonic multi-channel analyzer (Hamamatsu C10027-01) were used to measure a light emission spectrum. Absolute quantum yields were measured for solutions of protein–chromophore complexes in DPBS (pH 7.40) in which ≥95% of the total chromophore was occupying the protein-binding pocket (Table 1). […]

[5] = pH-dependent fluorescence assays (pH titration); assay type: biochemical; settings: from pH 8.38 to pH 3.63
Experimental: In measuring pH-dependent fluorescence (Fig. 3d–i), Na2HPO4-citrate buffer supplemented with 150 mM NaCl at unique pH values were produced via mixing various volumes of 100 mM citric acid (Sigma Aldrich), 200 mM Na2HPO4 (Sigma Aldrich), and 2.00 M NaCl, and final pHs quantified via an Accumet AB15 Basic pH meter (Fisher Scientific). pHRed and pHluorin2 were produced via large-scale protein purification, 6xHis-tag removal and size-exclusion chromatography (SEC) purification, and mFAP_pH and mFAP2b were produced via large-scale protein purification and SEC purification. pH-dependent fluorescence was measured at […] final protein concentration for mFAP2b, mFAP_pH and pHRed, and 170 nM final concentration for pHluorin2, at each pH in technical triplicate in 200 μL final volumes per well. […] In measuring fluorescence excitation spectra at each pH (Fig. 3d), excitation wavelengths were set to the range λex = 300–530 nm and fluorescence emission measured at λem = 562 nm. In measuring pH-dependent fluorescence excitation spectra at pH 3.76 and pH 7.34 (Fig. 3f, g), excitation spectra were measured using excitation wavelengths in the range λex = 300–540 nm and emission wavelength λem = 592 nm. […]

B1: aBCL2: designed binding partner of BCL2 (protein)
chain: GADPKKVLDKAKDEAENRVRELKQRLEELYKEARKLDLTQEMRQELVDKARAASLQANGDIFYAILRALAEAEKLKKAGLVNSQQLDELKRRLEELAEEARRKAEKLRDEFRLKLEYG
In the case of B1, the Kd (BCL2) is listed as 0.8 ± 0.5 nM.

B2: aBFL1: designed binding partner of BFL1 (protein)
chain: GADPKKVLDKAKDQAENRVRELKQKLEELYKEARKLDLTQEKRKKLEVATLGAVLAAHGDILNAIMQAKEEADKLKKAGLVNSQQLDELKRRLEELKEEALRKASDYGNEFHLKRRYG
For B2, the Kd (BCL2) is listed as 320 ± 40 nM.

B3: mFAP2: previously reported mini-fluorescence-activating protein, initial design (protein)
chain: SRAAQLLPGTWQVTMTNEDGQTSQGQMHFQPRSPYTMDVVAQGTISDGRPISGYGKVTVKTPDTLDVDITYPSLGNIKAQGQITMDSPTQFKFDATTKGAGNFTGRLTGTLQRQE
In the case of B3, the Kd [1] is given as about 180 nM, the “absolute fluorescence quantum yield (ϕc)” value [2] is given as 2.1% and the “higher affinity for DFHBI than DFHBI-1T” value [3] is given as ~ 30 fold. The “brighter fluorescence with DFHBI-1T than DFHBI” value [4] was ~ 2.7 fold.

B4: mFAP_pH: particularly pH-responsive variant (protein)
chain: SRAAQLLPGTWQVTMTNEDGQTSQGQMHFQPRSPYTMDIVAQGTISDGRPIVGYGKATVKTPDTLDIDITYPSLGNIKAQGQITMDSPTQFKFDATTKGENDFHGRLTGTLQRQE
For B4, the “fold-change in ratiometric fluorescence (Fratio)” value [5] was ~ 250 fold.

Reference: article PMC7870846, “Incorporation of sensing modalities into de novo designed fluorescence-activating proteins” (Nature Communications, 2021)
